Consider 37 variants from the Human Domainome abundance scans (Beltran et al. 2025).

B1: POU domain, class 4, transcription factor 2, residues 256 to 327; numbered along this chain, Q12837 (parent)
chain: RDLEAFAERFKQRRIKLGVTQADVGSALANLKIPGVGSLSQSTICRFESLTLSHNNMIALKPILQAWLEEAE

± gives the uncertainty stated by the source.

This data set covers variants of B1. Nature of the data set: abundance fitness (aPCA) (normalised: wild type 0, dead -1); higher = more abundant; growth selection in yeast, the domain comes from the species named. The conditions noted are these: Homo sapiens.
Take RDLEAFAERFKQRRIKLGVTQQDVGSALANLKIPGVGSLSQSTICRFESLTLSHNNMIALKPILQAWLEEAE [A22Q]: the abundance fitness is -0.052 ± 0.08. As for RDLEAFAERFKQRRIKLGVTQWDVGSALANLKIPGVGSLSQSTICRFESLTLSHNNMIALKPILQAWLEEAE [A22W], the figure is -0.302 ± 0.077; as for RGLEAFAERFKQRRIKLGVTQADVGSALANLKIPGVGSLSQSTICRFESLTLSHNNMIALKPILQAWLEEAE [D2G], -0.21 ± 0.054; as for RDLEAFAERFKQRRIKLGVTQADVGSALANLKIPGVGSLSQSTICRFESLTDSHNNMIALKPILQAWLEEAE [L52D], -0.472 ± 0.18. On to RDLEAFAERFKQRRIKLGVTQADVGSALANLKIPGVGSLSQSTICRFESLTLSHNNMIALKPILQHWLEEAE [A66H], for which the abundance fitness was -0.153 ± 0.097. As for RDLEAFAERFKQRRIKLGVTQADVGSALANLKIPGVGSLSQSTICRFESLTLSHNNMIALKPILQDWLEEAE [A66D], the figure is 0.098 ± 0.12; as for RDLEAFAERFKQRRIKLGVTQADVGSALANLKIPGVGSLSQSTICRFESITLSHNNMIALKPILQAWLEEAE [L50I], -0.361 ± 0.18; as for RDLEAFAERFKQRRIKLGVTQADVGSALANLKIPGVGSLSQSTICRFESKTLSHNNMIALKPILQAWLEEAE [L50K], -0.128 ± 0.25.

As to RDLEAFAERFKQRRIKLGVTQADVGSALANLKIPGVGSLSQSTICRFESWTLSHNNMIALKPILQAWLEEAE [L50W], the abundance fitness is -0.791 ± 0.19.

In the case of RDLEAFAERFKQRRIKLGVTQADVGSALANLKIPGVGSLSQSTICRFESPTLSHNNMIALKPILQAWLEEAE [L50P], the abundance fitness was -0.867 ± 0.12. In the case of RDLEAFAERFKQRRIKLGVTQADVGSALANLKIPGVGSLSQSTICRFESLTLHHNNMIALKPILQAWLEEAE [S53H] it was -0.376 ± 0.15; in that of RDLEAFAERFKQRRIKLGVTQADVGSALASLKIPGVGSLSQSTICRFESLTLSHNNMIALKPILQAWLEEAE [N30S], -0.059 ± 0.061; in that of RDLEAFAERFKQRRIKLGVTQADVGSALAPLKIPGVGSLSQSTICRFESLTLSHNNMIALKPILQAWLEEAE [N30P], -0.146 ± 0.054. In the case of RDLEAFAERFSQRRIKLGVTQADVGSALANLKIPGVGSLSQSTICRFESLTLSHNNMIALKPILQAWLEEAE [K11S] it was -0.443 ± 0.08; in that of RDLEAFAERFKQRRIKLGVTQADVGSALANLKIPDVGSLSQSTICRFESLTLSHNNMIALKPILQAWLEEAE [G35D], -0.36 ± 0.22; in that of RDLKAFAERFKQRRIKLGVTQADVGSALANLKIPGVGSLSQSTICRFESLTLSHNNMIALKPILQAWLEEAE [E4K], -0.137 ± 0.089.

With RDLEAFAERFKQRRIKLGVTQADVGSALANLKIPGVGSLSQSTICRFESLTLSHNNMIALKIILQAWLEEAE [P62I], the abundance fitness is -0.638 ± 0.17.

RDLEAFAERFKQRRIKLGNTQADVGSALANLKIPGVGSLSQSTICRFESLTLSHNNMIALKPILQAWLEEAE [V19N]: the abundance fitness is -0.093 ± 0.2. In the case of RDLEAFAERFKQRRIKLGVTQADVGSALMNLKIPGVGSLSQSTICRFESLTLSHNNMIALKPILQAWLEEAE [A29M] it was -0.046 ± 0.11; in that of RDLEAFAERFKQRRIKLGVTQADVGSALANLKIPGVGSLSQSTICRFESLTLSHNTMIALKPILQAWLEEAE [N56T], -0.023 ± 0.25; in that of RDLEAFAERFKQRRIKLGVTQADVGSALANLKIPGVGSLSQSTICRFESLTLSHNLMIALKPILQAWLEEAE [N56L], 0.07 ± 0.077. In the case of RDLEAFAERFKQRRIKLGVTQADVGSALANLKIPGVGSLSQSTICRFESLTLSHNNMIALKPILQAWAEEAE [L68A] it was -0.483 ± 0.12; in that of RDLEAFAERFKQRRIKLGVTQADVGSALANLKIPGVGSLSQSTICRFESLTLSHNNMIALKPILQAWGEEAE [L68G], -0.777 ± 0.32; in that of RDLEAFAERFKQRRIKLGVTQADVGSALANLKIPGVGSLSQSTICRFESLTLSHNNMIALKPILQAWSEEAE [L68S], -0.559 ± 0.16. In the case of RDLEAFAERFKQRRMKLGVTQADVGSALANLKIPGVGSLSQSTICRFESLTLSHNNMIALKPILQAWLEEAE [I15M] it was 0.113 ± 0.14.

RDLEAFAERFKQRRKKLGVTQADVGSALANLKIPGVGSLSQSTICRFESLTLSHNNMIALKPILQAWLEEAE [I15K]: the abundance fitness stood at 0.015 ± 0.086. In the case of RDLEAFAERFKQRRIKLGVTQADVGSALANLKIPGVGSLSQSTICRFESLTLSHNNMIALKPILDAWLEEAE [Q65D] it was -0.186 ± 0.28; in that of RDLEAFAERFKQRRIKLGVTQADVGSALANLKIPGVGSLSQSTICRFESLTLSHNNMIALKPILFAWLEEAE [Q65F], -0.369 ± 0.071; in that of RDLEAFAERFKQRRIWLGVTQADVGSALANLKIPGVGSLSQSTICRFESLTLSHNNMIALKPILQAWLEEAE [K16W], -0.403 ± 0.14.

As to RDLEAFAERFKQRRIKLGVTQADVGSASANLKIPGVGSLSQSTICRFESLTLSHNNMIALKPILQAWLEEAE [L28S], the abundance fitness is -0.636 ± 0.064. With RDLEAFAERFKQRRIKLGVTQADVGSAFANLKIPGVGSLSQSTICRFESLTLSHNNMIALKPILQAWLEEAE [L28F], the abundance fitness was -0.215 ± 0.12. As for RDLEAFAERFKQRRIKLGVTQADVGIALANLKIPGVGSLSQSTICRFESLTLSHNNMIALKPILQAWLEEAE [S26I], the figure is -0.275 ± 0.18; as for RDLEAFAERFKQRRIKLGVTQADVGSALANLKIPGVGSLSQITICRFESLTLSHNNMIALKPILQAWLEEAE [S42I], -0.272 ± 0.39; as for RDLEAFAERFKQRRIKLGVTQADVGSALANLKIPGVGSLSQSTICRFEILTLSHNNMIALKPILQAWLEEAE [S49I], -1.03 ± 0.46. In the case of RDLEAFAERFKWRRIKLGVTQADVGSALANLKIPGVGSLSQSTICRFESLTLSHNNMIALKPILQAWLEEAE [Q12W] it was -0.269 ± 0.094; in that of RDLEAFAERFKYRRIKLGVTQADVGSALANLKIPGVGSLSQSTICRFESLTLSHNNMIALKPILQAWLEEAE [Q12Y], -0.463 ± 0.23. Take RDLEAFAEREKQRRIKLGVTQADVGSALANLKIPGVGSLSQSTICRFESLTLSHNNMIALKPILQAWLEEAE [F10E]: the abundance fitness was -0.755 ± 0.26.
